Reference: patent US20100183625A1, “Treatment of Mucositis with Kallikrein Inhibitors” (Dyax Corp., priority 2009, published 2010)

target: T1, pKal (Homo sapiens, UniProt P03952); test: Fab fragments (small scale) tested for inhibition against human pKal in an in vitro protease cleavage assay; type: biochemical; details: Table 9
T1 construct: two disulfide linked polypeptides; a heavy chain of approximately 52 kDa and a catalytic domain of approximately 34 kDa; host or cells: human plasma
Method: By DNA sequencing, we recovered 61 of the possible 80 antibodies (Table 9). These antibodies were produced as Fab fragments in small scale (˜20 μg) and tested for inhibition against human pKal in an in vitro protease cleavage assay using Pro-Phe-Arg-aminomethylcoumarin as the synthetic peptide substrate. […] Five antibodies were then expressed in 293T cells and purified by protein A sepharose chromatography. The antibodies were analyzed by SDS-PAGE to determine which of the inhibitory mutants are not cleaved by the host cell protease(s) (data not shown).

T1 sequence (P03952 391-638 limits assumed): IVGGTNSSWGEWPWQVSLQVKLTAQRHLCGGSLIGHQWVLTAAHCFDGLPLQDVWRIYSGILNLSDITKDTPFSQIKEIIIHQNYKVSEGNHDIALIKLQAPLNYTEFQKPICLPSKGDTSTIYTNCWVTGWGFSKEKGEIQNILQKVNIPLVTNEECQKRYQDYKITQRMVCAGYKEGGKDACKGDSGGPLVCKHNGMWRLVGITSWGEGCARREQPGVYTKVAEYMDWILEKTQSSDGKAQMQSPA
T1 sequence (P03952 20-390 partner limits assumed): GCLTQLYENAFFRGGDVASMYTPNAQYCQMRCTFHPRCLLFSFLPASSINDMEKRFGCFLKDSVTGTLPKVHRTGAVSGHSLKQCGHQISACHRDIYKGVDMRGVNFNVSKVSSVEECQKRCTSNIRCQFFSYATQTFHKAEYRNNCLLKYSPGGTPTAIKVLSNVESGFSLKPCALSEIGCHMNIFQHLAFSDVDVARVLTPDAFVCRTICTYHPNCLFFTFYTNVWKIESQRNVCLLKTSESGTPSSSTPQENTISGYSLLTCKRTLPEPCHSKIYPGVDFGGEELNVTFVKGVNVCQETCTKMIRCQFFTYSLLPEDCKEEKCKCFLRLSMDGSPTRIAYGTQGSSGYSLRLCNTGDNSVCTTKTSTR

| Inhibit as a Fab? | Molecule |
| --- | --- |
| Yes | X69-F01: single point mutation of M142-H08 (P1′); HV-CDR3 GGLLLWFRTLKSNYFDY (antibody, V domains shown) VL: QDIQMTQSPSSLSAFVGDRVTITCRASQPIDNYLNWYHQKPGKAPKLLIYAASRLQSGVPSRLSGSGFGTDFTLTISSLQPEDFGNYYCQQSYTVPYTFGGGTKVEIR VH: EVQLLESGGGLVQPGGSLRLSCAASGFTFSAYSMIWVRQAPSKGLEWVSYIRPSGGRTTYADSVKGRFTISRDNSKNTLYLQMNSLRAEDTAVYYCARGGLLLWFRTLKSNYFDYWGQGTLVTVSSASTKGPSVFPLAPSSKS |
| No | X68-F05: single point mutation of M142-H08 (P3); HV-CDR3 GGLLLMFRELKSNYFDY (antibody, V domains shown) VL: QDIQMTQSPSSLSAFVGDRVTITCRASQPIDNYLNWYHQKPGKAPKLLIYAASRLQSGVPSRLSGSGFGTDFTLTISSLQPEDFGNYYCQQSYTVPYTFGGGTKVEIR VH: EVQLLESGGGLVQPGGSLRLSCAASGFTFSAYSMIWVRQAPGKGLEWVSYIRPSGGRTTYADSVKGRFTISRDNSKNTLYLQMNSLRAEDTAVYYCARGGLLLMFRELKSNYFDYWGQGTLVTVSSASTKGPSVFPLAPSSKS |
| No | X68-F10: single point mutation of M142-H08 (P3); HV-CDR3 GGLLLQFRELKSNYFDY (antibody, V domains shown) VL: QDIQMTQSPSSLSAFVGDRVTITCRASQPIDNYLNWYHQKPGKAPKLLIYAASRLQSGVPSRLSGSGFGTDFTLTISSLQPEDFGNYYCQQSYTVPYTFGGGTKVEIR VH: EVQLLESGGGLVQPGGSLRLSCAASGFTFSAYSMIWVRQAPGKGLEWVSYIRPSGGRTTYADSVKGRFTISRDNSKNTLYLQMNSLRAEDTAVYYCARGGLLLQFRELKSNYFDYWGQGTLVTVSSASTKGPSVFPLAPSSKS |
| No | X69-H10: single point mutation of M142-H08 (P1′); HV-CDR3 GGLLLWFRYLKSNYFDY (antibody, V domains shown) VL: QDIQMTQSPSSLSAFVGDRVTITCRASQPIDNYLNWYHQKPGKAPKLLIYAASRLQSGVPSRLSGSGFGTDFTLTISSLQPEDFGNYYCQQSYTVPYTFGGGTKVEIR VH: EVQLLESGGGLVQPGGSLRLSCAASGFTFSAYSMIWVRQAPGKGLEWVSYIRPSGGRTTYADSVKGRFTISRDNSKNTLYLQMNSLRAEDTAVYYCARGGLLLWFRYLKSNYFDYWGQGTLVTVSSASTKGPSVFPLAPSSKS |
| No | X68-F12: single point mutation of M142-H08 (P3); HV-CDR3 GGLLLTFRELKSNYFDY (antibody, V domains shown) VL: QDIQMTQSPSSLSAFVGDRVTITCRASQPIDNYLNWYHQKPGKAPKLLIYAASRLQSGVPSRLSGSGFGTDFTLTISSLQPEDFGNYYCQQSYTVPYTFGGGTKVEIR VH: EVQLLESGGGLVQPGGSLRLSCAASGFTFSAYSMIWVRQAPGKGLEWVSYIRPSGGRTTYADSVKGRFTISRDNSKNTLYLQMNSLRAEDTAVYYCARGGLLLTFRELKSNYFDYWGQGTLVTVSSASTKGPSVFPLAPSSKS |
| No | X68-E03: single point mutation of M142-H08 (P3); HV-CDR3 GGLLLEFRELKSNYFDY (antibody, V domains shown) VL: QDIQMTQSPSSLSAFVGDRVTITCRASQPIDNYLNWYHQKPGKAPKLLIYAASRLQSGVPSRLSGSGFGTDFTLTISSLQPEDFGNYYCQQSYTVPYTFGGGTKVEIR VH: EVQLLESGGGLVQPGGSLRLSCAASGFTFSAYSMIWVRQAPGKGLEWVSYIRPSGGRTTYADSVKGRFTISRDNSKNTLYLQMNSLRAEDTAVYYCARGGLLLEFRELKSNYFDYWGQGTLVTVSSASTKGPSVFPLAPSSKS |
| No | X68-E12: single point mutation of M142-H08 (P3); HV-CDR3 GGLLLCFRELKSNYFDY (antibody, V domains shown) VL: QDIQMTQSPSSLSAFVGDRVTITCRASQPIDNYLNWYHQKPGKAPKLLIYAASRLQSGVPSRLSGSGFGTDFTLTISSLQPEDFGNYYCQQSYTVPYTFGGGTKVEIR VH: EVQLLESGGGLVQPGGSLRLSCAASGFTFSAYSMIWVRQAPGKGLEWVSYIRPSGGRTTYADSVKGRFTISRDNSKNTLYLQMNSLRAEDTAVYYCARGGLLLCFRELKSNYFDYWGQGTLVTVSSASTKGPSVFPLAPSSKS |
| No | X68-G01: single point mutation of M142-H08 (P3); HV-CDR3 GGLLLRFRELKSNYFDY (antibody, V domains shown) VL: QDIQMTQSPSSLSAFVGDRVTITCRASQPIDNYLNWYHQKPGKAPKLLIYAASRLQSGVPSRLSGSGFGTDFTLTISSLQPEDFGNYYCQQSYTVPYTFGGGTKVEIR VH: EVQLLESGGGLVQPGGSLRLSCAASGFTFSAYSMIWVRQAPGKGLEWVSYIRPSGGRTTYADSVKGRFTISRDNSKNTLYLQMNSLRAEDTAVYYCARGGLLLRFRELKSNYFDYWGQGTLVTVSSASTKGPSVFPLAPSSKS |
| No | X68-G05: single point mutation of M142-H08 (P3); HV-CDR3 GGLLLSFRELKSNYFDY (antibody, V domains shown) VL: QDIQMTQSPSSLSAFVGDRVTITCRASQPIDNYLNWYHQKPGKAPKLLIYAASRLQSGVPSRLSGSGFGTDFTLTISSLQPEDFGNYYCQQSYTVPYTFGGGTKVEIR VH: EVQLLESGGGLVQPGGSLRLSCAASGFTFSAYSMIWVRQAPGKGLEWVSYIRPSGGRTTYADSVKGRFTISRDNSKNILYLQMNSLRAEDTAVYYCARGGLLLSFRELKSNYFDYWGQGTLVTVSSASTKGPSVFPLAPSSKS |
| Yes | X69-E01: single point mutation of M142-H08 (P1′); HV-CDR3 GGLLLWFRWLKSNYFDY (antibody, V domains shown) VL: QDIQMTQSPSSLSAFVGDRVTITCRASQPIDNYLNWYHQKPGKAPKLLIYAASRLQSGVPSRLSGSGFGTDFTLTISSLQPEDFGNYYCQQSYTVPYTFGGGTKVEIR VH: EVQLLESGGGLVQPGGSLRLSCAASGFTFSAYSMIWVRQAPGKGLEWVSYIRPSGGRTTYADSVKGRFTISRDNSKNTLYLQMNSLRAEDTAVYYCARGGLLLWFRWLKSNYFDYWGQGTLVTVSSASTKGPSVFPLAPSSKS |
| No | X68-A03: single point mutation of M142-H08 (P3); HV-CDR3 GGLLLDFRELKSNYFDY (antibody, V domains shown) VL: QDIQMTQSPSSLSAFVGDRVTITCRASQPIDNYLNWYHQKPGKAPKLLIYAASRLQSGVPSRLSGSGFGTDFTLTISSLQPEDFSNYYCQQSYTVPYTFGGGTKVEIR VH: EVQLLESGGGLVQPGGSLRLSCAASGFTFSAYSMIWVRQAPGKGLEWVSYIRPSGGRTTYADSVKGRFTISRDNSKNTLYLQMNSLRAEDTAVYYCARGGLLLDFRELKSNYFDYWGQGTLVTVSSASTKGPSVFPLAPSSKS |
| Yes | X69-C12: single point mutation of M142-H08 (P1′); HV-CDR3 GGLLLWFRVLKSNYFDY (antibody, V domains shown) VL: QDIQMTQSPSSLSAFVGDRVTITCRASQPIDNYLNWYHQKPGKAPKLLIYAASRLQSGVPSRLSGSGFGTDFTLTISSLQPEDFGNYYCQQSYTVPYTFGGGTKVEIR VH: EVQLLESGGGLVQPGGSLRLSCAASGFTFSAYSMIWVRQAPGKGLEWVSYIRPSGGRTTYADSVKGRFTISRDNSKNTLYLQMNSLRAEDTAVYYCARGGLLLWFRVLKSNYFDYWGQGTLVTVSSASTKGPSVFPLAPSSKS |
| No | X68-D10: single point mutation of M142-H08 (P3); HV-CDR3 GGLLLPFRELKSNYFDY (antibody, V domains shown) VL: QDIQMTQSPSSLSAFVGDRVTITCRASQPIDNYLNWYHQKPGKAPKLLIYAASRLQSGVPSRLSGSGFGTDFTLTISSLQPEDFGNYYCQQSYTVPYTFGGGTKVEIR VH: EVQLLESGGGLVQPGGSLRLSCAASGFTFSAYSMIWVRQAPGKGLEWVSYIRPSGGRTTYADSVKGRFTISRDNSKNTLYLQMNSLRAEDTAVYYCARGGLLLPFRELKSNYFDYWGQGTLVTVSSASTKGPSVFPLAPSSKS |
| No | X68-A12: single point mutation of M142-H08 (P3); HV-CDR3 GGLLLGFRELKSNYFDY (antibody, V domains shown) VL: QDIQMTQSPSSLSAFVGDRVTITCRASQPIDNYLNWYHQKPGKAPKLLIYAASRLQSGVPSRLSGSGFGTDFTLTISSLQPEDFGNYYCQQSYTVPYTFGGGTKVEIR VH: EVQLLESGGGLVQPGGSLRLSCAASGFTFSAYSMIWVRQAPGKGLEWVSYIRPSGGRTTYADSVKGRFTISRDNSKNTLYLQMNSLRAEDTAVYYCARGGLLLGFRELKSNYFDYWGQGTLVTVSSASTKGPSVFPLAPSSKS |
| Yes | X68-E01: single point mutation of M142-H08 (P3); HV-CDR3 GGLLLLFRELKSNYFDY (antibody, V domains shown) VL: QDIQMTQSPSSLSAFVGDRVTITCRASQPIDNYLNWYHQKPGKAPKLLIYAASRLQSGVPSRLSGSGFGTDFTLTISSLQPEDFGNYYCQQSYTVPYTFGGGTKVEIR VH: EVQLLESGGGLVQPGGSLRLSCAASGFTFSAYSMIWVRQAPGKGLEWVSYIRPSGGRTTYADSVKGRFTISRDNSKNTLYLQMNSLRAEDTAVYYCARGGLLLLFRELKSNYFDYWGQGTLVTVSSASTKGPSVFPLAPSSKS |
| No | X68-D11: single point mutation of M142-H08 (P3); HV-CDR3 GGLLLKFRELKSNYFDY (antibody, V domains shown) VL: QDIQMTQSPSSLSAFVGDRVTITCRASQPIDNYLNWYHQKPGKAPKLLIYAASRLQSGVPSRLSGSGFGTDFTLTISSLQPEDFGNYYCQQSYTVPYTFGGGTKVEIR VH: EVQLLESGGGLVQPGGSLRLSCAASGFTFSAYSMIWVRQAPGKGLEWVSYIRPSGGRTTYADSVKGRFTISRDNSKNTLYLQMNSLRAEDTAVYYCARGGLLLKFRELKSNYFDYWGQGTLVTVSSASTKGPSVFPLAPSSKS |
